One molecule from patent publication US20030170222A1 can be followed below.

This experiment has as its target Melanocortin MC5 (human recombinant, HEK-293 cells) (human), P33032.

Melanocortin MC5 (human recombinant, HEK-293 cells) (human), P33032, sequence (P33032 whole entry): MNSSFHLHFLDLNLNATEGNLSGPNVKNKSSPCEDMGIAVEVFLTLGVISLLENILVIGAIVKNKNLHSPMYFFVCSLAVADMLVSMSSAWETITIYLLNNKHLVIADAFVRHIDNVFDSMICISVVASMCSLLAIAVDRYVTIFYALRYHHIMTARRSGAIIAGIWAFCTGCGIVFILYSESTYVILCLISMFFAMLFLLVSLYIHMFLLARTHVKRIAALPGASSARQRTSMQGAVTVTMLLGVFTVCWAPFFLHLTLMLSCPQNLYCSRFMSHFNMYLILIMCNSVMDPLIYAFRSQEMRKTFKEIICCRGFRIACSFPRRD

On to SLWCVCPFRVCPPCH (modifications not checked) [β-Ge14.1-D1], for which the % Inh. came to 71%, the IC50 came out at 294 nM and the inhibition constant Ki amounted to 276 nM.
